# Data taken from article PMC6191538.
# Target: Hoc- Soc- phage T4 particles (capsid) (phage T4) (UniProt P13332)
# Assay: co-sedimentation
substance,measurement,value
Soc-PA (93 kDa),BC50 (half-maximal binding concentration),1140 nM
